In the nanobody polyreactivity screen of Harvey et al. (2022):

Assay: yeast display, Sf9 membrane polyspecificity reagent, FACS + sequencing; frameworks hold sequencing errors
Method in brief: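 Galactose-induced (36–48 hours) yeast carrying a synthetic nanobody display library were exposed to 10% biotinylated, detergent-solubilized Sf9 membrane reagent at 4 °C for 1 hour. FACS followed streptavidin microbead enrichment, using low and high (top ~1%) gates for expression (anti-HA) and reagent binding (streptavidin). Colony PCR, MiSeq 2 × 250 sequencing and CDR-length filtering followed. Labels for polyreactivity reflect the gate of origin.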

| Sequence | polyreactivity (PSR sort gate) |
| --- | --- |
| QVQLVESGGGLVQAGASLRLSSAASGRTFRRNAKRWYRQAAGKERELVAFITGTGSTTYYADSVKGRFTISRDNAKNTVYLQMYSLKPEDTAVYYCAASSKYQDYWGQGTQVTVSS | high polyreactivity |
| QVQLVESGGGLVQAGGSLRLSCAASGSTFRDYAMGWYRQAPGKERELVASITSGSSTYADSVKGRFTISRDNAKNTVYLQMNCLKPEDTAVYYCNADGITSLPVPALDYWGQGTQVTVSS | low polyreactivity |
| QVQLVESGGGLVQAGGSLRFSCAASGRIFGRYAMGWYRQAPGKERELVAAISSTGGSTYYADSVKGRFTISRDNANNTVYLQMNSLKPEDTAVYYCATVWYGRYYWATEYWGQGTQVTVSS | high polyreactivity |
| QVHLVESGGGLVQAGGSLRLSCAASGRIFNSNAMGWYIQEPGKERELAAAISKRGGSTFYADSVKGRFTISRDNGKNTVFLQMKSLKPEYSAVYYCNARRLSTGFDRYDYWGQGTQVTGSS | high polyreactivity |
| QVQLVESGGGLFQAGGSLRLSCAASGRIFGIYAMGWYRQAPGKERELVAAITRGSTYYADSVKGRFTISRDNAKNTVYLQMNSLKPEDTAVYYCNARPRVPGVLYLYDYLGQGTQVTVSS | high polyreactivity |
| QVQLVESGGGLVQAGGSLRLSCAASGRIFGRNAMGWYRPAPGKERELVADISYRGGRPYYADSVKGRFTISRDNAKNTVYLQMNSLKPEDTAVYYCNAGVYRSGGRKYDYWGQGTQVTVSS | high polyreactivity |
| QVQLVESGGGLVQAGGSLRLSCAASGSTFTFNAMGWYRQAPGKERELVAAITTSAGSTYYADSVKGRFTISRDNAKNTVYLQMNSLKPEDTAVYYCAARYVPPWGRRYYYWGQGTQVTVSS | high polyreactivity |
| QVQLVESGGGLVQAGGSLRLSCAASGRTFTYYAMGWYRQAPGKERELVAAIRWTGDSTYYADSVKGRFTISRDNAKNTVYLQMNSLKPEDTAVYYCAKQARWQYDGGIRWYYYWGQGTQVTVSS | high polyreactivity |
| QVQLVESGGGLVQAGGSLRLSCAASGFTFTKYDMGWYRQAPGKETELVAVITWSGGSTYYADSVKGRFTISRDNAKNTVYLQMNSLKPEDTAVYYCNAEAPRYTYGRMDYWGQGTQVTVSS | low polyreactivity |
| QVQLVESGGGLVQAGGSLRLSCAASGRTFRPYAMGWYRQAPGKERELVAAIDSSGTSTYYADSVKGRFTISRDNAKNTVYLQMNCLKPEDTAVYYCNTSLKRRRLRFNYWGQGTQVTVSS | low polyreactivity |
| QVQLVESGGGLVQAGRSLRLSCAASGRTFPYYVMGWYRQAPGKDRELVAAINSGGRTNYADSVKGRFTISRDNAKNTVYLQLNSLKPEDTAVYYCTKRGHPARLGYYYWGQGTLVTVSS | low polyreactivity |
| QLQLVESGGGLVQAGGSLRLSCAASGFTIRRYAMGCYRQAPGKERELVAAITWSAGSTYYADSVKGRFTISRDNAKNTVYLQMNSLKPEDTAVYYCAARWTRWGADSGYYWGKGTQVTVSS | high polyreactivity |
| QVQLVESGGGLVQAGGSLRLSCAASGRIFGSYAMGWYRQAPGKERELVAAITTVGITYYADSVKGRFTISRDNAKNTVYLQMNSLKPEDTADYYCAAEYFDYPYWYDYWGQGTQVTVSS | high polyreactivity |
| QVQLVESGGGLVQAGRSLRLSCAASGSTFWEYAMGWYRQAPGNEREFVAAISTSGGSTYYADSLKGRFTISRDTAKYTVYLQMNSLKPEDTAVYYCAAGRVRRRVWYNYWGQGTQVTVSS | high polyreactivity |
| QVQLVESGGGLVQAGGSLRLSCAASGGTFRNYAMGWYRQAPGKERELVAGITSGSRTNYADSVKGRFTISRDNAKNTVYLQMNSLKPEDTAVYYCNARGNYVGRPYPVKHAYRSYYWGQGTQVTVSS | high polyreactivity |
| QVQLVESGGGLVQAGGSLRLSCAASGRTLDVNAMGWYRQAPGKERELVAAISYSGGITYYADSVKGRFTISRDNAKNTVYLQMNSLKPEDTAVYYCAVVGGYPSYTVDYWGQGTQVTVSS | low polyreactivity |
| QVQLVESGGGLVQAGGSLRLICAASGSIFCYAMGWYRQAPGKERELVAGISRGGSTYYADSVKGRFTISRDNAKNTGYLKMNSLKPEDTAVYYCNTAGYYGTPYNYWGQGTQVTVSS | low polyreactivity |
| QVQLVESGGGLVQAGGSLRLSCAASGSIFASNSMGWYRQEPGQERELVAAINSGDSTNYADTVKGRFTISRDTAKNTVYLQMNSLKPEDTAVYYCARGLEERYDYWGQRTQVTVSS | low polyreactivity |
| QVQLVQSGGGLVQAGGSLRLSCAASGSIFTSYAMGWYRQAPGKERELVAAINGSGGSTFYADSVKGRFTISRDHAKNTVYLQMNSLNPEYTAVYYCYTVGPRGTTYDDWGQGSQVTVSS | low polyreactivity |
| QVQLVESGGGLVQAGGSLRLSCAASGRFLWYNAMGWYRQAPGTERELVAAITRGGSTHYADSVKGRFTLSRDNAKNTVYLQMNSLKPEDTAVYYCAVSYRSFPYYWERYYSWGQGTQVTVSS | high polyreactivity |
| QVQLVESGGGLVQAGGSLRLSCAASGSTFAGNAMGWYRQAPGKERELVAAIDSSTGSTYYADSVKGRFTISRDNAKNTVYLQMNSLKPEDTAVYYCNNTSFLVKLDYWGQGTQVTVSS | low polyreactivity |

| Sequence | polyreactivity (PSR sort gate) |
| --- | --- |
| QVQLVESGGGLVQAGGSLRLICAASGFNFQRYAMGWYIQAPGKERELVATISNSGGRTYYADSVKGRFTISRDNAKNTVYLQMNSLKPEDTAVYYCAAGKPYSSYWSWGYWSNLEDDYWGQGTQVTVSS | high polyreactivity |
| QVQLVESGGGLVQAGGSLPLSCAASGSNFWRNALGWYRQAPGKERELVAAISGSGGSTYYADSVKGRFTISRDNAKNTVYLQMNSLKPEDTAVYYSYVSRMDYWGQGTQVTVSS | high polyreactivity |
| QVQLVESGGGLVQAGGSLRLSCAASGRTFLRNDMVWYRQAPGKERELVAAISYSGGRTYYAVSVKGRFTISRDNAKNTVYLQMNSLKPEDTAVYYCAADRFFKAIRPYDYWGQGTQVTVSS | high polyreactivity |
| QVQLVESGGGLVQAGGSLRLSCAASGFIFRGYAMGWYRQAPGKERELVAAISRSGGSTYYADSVKGRFTISRDNAKNTVYLQMNSLKPEDTAVYYCAARNSPGFPGDYWGQGTQVTVSS | high polyreactivity |
| QVQLVESGGGLVQAGGSLRLSCAASGRIFSVYAMGWYRQAPGKEREFVAAITKGGVGTYYADSVKGRFTISRDNAKNTVYLQMNSLKPEDTAVYYCAARHYYGADRYYSWGQGTLVTVSS | high polyreactivity |
| QVQLVESGGGLVQAGGSLRLSCAASALIFKTYTMGWYRQAPGKEREFVAAITTSGGSTYYADSVKGRFTISRDNAKNTVYLQMNSLKPEDTAVYYCAAVWWKSFQGSSYRMNYWGQGTQVTVSS | high polyreactivity |
| QVQLVESGGGLVQAGGSLRLSCAASGFILRSYGMAWYRKAPGKERELVAAITRGGSTYYADSVKGRFTISRDNAKNTVYLQMNSLKAEDTAVYYCAARTRYYSQQFDYWGQGTQVTVSS | high polyreactivity |
| QVQLVESGGGLVQAGGSLRLSCAASGFIFGVYAMRWYRQAPGKERELVAAISYRTGTTYYADSVKGRFTISRDNAKNTVYLQMNSLKTEDTAVYYCNAAVRGVGELDYWGQGTQVTVSS | high polyreactivity |
| QVQLVESGGGLVQAGGSLRLSCAASGRTFFTYAMGWYRQAPGKERELVASITSSGVSTYYADSVKGRFTISRDNAKNTVYLQINRLKPEDTAVYHCNTRYPYYWPIYGYWGQGTQVTVSS | high polyreactivity |
| PVQLVESGGGLVQAGGSLRLTCAASGFTLTSNAMGWYRQAPGKERELVAAISKSGGSTHYADSVKGRFTISRDNAKNTVYLQMNSLKAEDTAVYYCATPYHRRFKGGDYWGQGTQVSVSS | high polyreactivity |
| QVQLVESGGGLVQAGGSLRFSCAASGSTFSYYDMGWYRQAPGKEREMVAAISWNGGTTFYADSVKGRFTISRDNAMNTVYLQMKSLKPEDTAVYYCAVTGFEVLWPSLGGELDYWGQGTQVTVSS | low polyreactivity |
| QVQLVESGGGLVQAGGSLRLSFAASGSISLYYAMGWYRKAPGKETELVAAISTRGGSTYYADSVKGRFTISRDNAKNTVYLQMNSLKPEDTAVYYCAARTRLTADPRYGISSKMYYWGQGTQVTVSS | high polyreactivity |
| QVQLVETGGGLVQAGGSLRLSCAASGNTFKYYAMGWYRQAPGKERELVAAISYSGGSTYYADSVKGRFTISRDNAKNTVYLQMNSLKPEDTAVYYCAADLDSERYYWGQGTQVTVSS | low polyreactivity |
| QVQLVESGVGLLQAGGSLRLSCAASGFIFSFYAMGWYRQAPGKERELVAGISQSGGRTYYADSVKGRFTISRDNAKNNVFLQMNSLKPEDTAVYYCAAQWYYSLYVSGDYWGQGTQVTVSS | high polyreactivity |
| QVQLVESGGGLVQAGGSLRLSCAASGGIFWHYTMGWYRQAPGKERELVAAITRRGGSTYYADSVKGRFTISRDNAKNSVYLQMTSLKREDTAVYYCAADFLPQSYNWYDYWGQGTQVTVSS | low polyreactivity |
| QVQLVESGGGLVQAGGSLRLSCAASGTTFAYNAMGWYIQAPGKEREMVAAISTSGGSTNYADSVKGRYTISRDNAMNTVYLQMNSLKPEDTAVYYCAARPKTPSITRYGYWGQGTQVTVSS | high polyreactivity |
| QVQLVESGGGLVQAGGSLRLSCAASGYTFDANDMGWYRQAPGTERELVARITWTGGNTYADSVKGRFTISRDNAKNTVYLQMNSLKPEDTAVYYCNAELGYVSSENYWGQGTQVTVTS | low polyreactivity |
| QVHLVESVGGLDQAGGSLRLSCAASGFIFVRYAMGWYRQAHGKEREFVAVISRRGGSTHYADSVKARFTISRDNAKNTVYLQMNSLKPEDTAVYYCNVRQGGPTVTWEYDYWGQGTQGTVSS | high polyreactivity |
| QVQLVESGGGLVQSGGSLRLSCAASGYIFGVNAMGWYRQAPGKERELVAAIDSGSRTYYADSVKGRFTISRDNAKNTVYLQMNSLIPEDTAVYYCATNFYVSYGGGYYTIWYDYWGQGTQVTVSS | low polyreactivity |
| QDQLVDSGGGLVQAGGSLSLSCAASGYILDYYAMGWSRQAPGKERELVAAISYRGDSTYYADSVKGRFTISRDNEKNTVYLQMNSLKPEDTAVYYCNAGYFTRAQYEYDYWGQGSQVTVSS | high polyreactivity |
